According to patent US20180230189A1 (INSERM INSTITUT NATIONAL DE LA SANT ET DE LA RECHERCHE …, published 2018):

Target: T1, extracellular domain of the recombinant protein NRP-1 from RnD systems (human, UniProt O14786 22-856)
T1 construct: Bought extracellular domain
Experiment: Bio-layer interferometry (BLI), synthetic peptide and recombinant NRP-1 extracellular domain
Description: Ligands preparation: proteins were incubated in a PBS buffer with a 1:3 ratio molar ratio of biotin (biotin-PEG4-NHS from Pierce EZ kit, prepared following the manufacturer's instructions). Free biotin was removed using a desalting column (Pierce). The biotinylated protein (called ligand) was immobilized onto streptavidin biosensor tips and dipped into wells containing the buffer with the analyte of interest (association) or without (dissociation).
From the best consensus mode, peptide sequences SEQ ID NO:3 for leptin and SEQ ID NO:4 for NRP-1 have been identified (FIG. 2). The Leptin (OB) binding domain (SEQ ID:3) to NRP-1 (SEQ ID:2) was validated by BLI using a synthetized peptide (SEQ ID:3) and the extracellular domain of the recombinant protein NRP-1 from RnD systems (FIG. 3).

T1 sequence (O14786 22-856 V179A limits assumed): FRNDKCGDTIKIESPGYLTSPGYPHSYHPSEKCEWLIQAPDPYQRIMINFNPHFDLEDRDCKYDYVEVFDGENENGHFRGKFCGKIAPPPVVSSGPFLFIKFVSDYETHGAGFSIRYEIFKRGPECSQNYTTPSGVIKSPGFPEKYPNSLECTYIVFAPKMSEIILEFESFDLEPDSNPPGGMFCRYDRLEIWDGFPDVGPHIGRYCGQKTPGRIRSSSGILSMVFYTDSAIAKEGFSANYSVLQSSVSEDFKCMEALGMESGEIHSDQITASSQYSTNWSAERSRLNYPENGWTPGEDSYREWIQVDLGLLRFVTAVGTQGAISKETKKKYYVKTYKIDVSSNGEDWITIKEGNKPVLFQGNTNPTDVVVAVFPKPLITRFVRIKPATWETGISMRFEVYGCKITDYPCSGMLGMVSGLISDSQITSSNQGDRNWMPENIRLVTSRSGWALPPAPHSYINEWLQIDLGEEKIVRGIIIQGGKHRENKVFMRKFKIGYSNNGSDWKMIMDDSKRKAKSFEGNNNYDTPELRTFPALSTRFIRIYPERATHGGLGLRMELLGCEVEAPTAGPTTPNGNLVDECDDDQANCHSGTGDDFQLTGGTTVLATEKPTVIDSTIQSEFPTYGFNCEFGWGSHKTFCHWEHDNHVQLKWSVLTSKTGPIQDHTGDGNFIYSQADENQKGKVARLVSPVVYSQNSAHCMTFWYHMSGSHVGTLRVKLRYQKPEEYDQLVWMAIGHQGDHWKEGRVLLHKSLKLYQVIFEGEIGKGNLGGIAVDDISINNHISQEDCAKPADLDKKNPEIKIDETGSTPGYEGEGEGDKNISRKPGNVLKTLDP

binding result: binds
B1: synthetized leptin (OB) peptide SEQ ID NO:3 (peptide)
peptide: ENLRDLLHVLAFSKSCHLPWASGLETL
notes: Synthetic peptide derived from leptin, identified by docking and then tested by BLI
